The supplement of paper PMC9170038

Assays:
MS2 coat protein [1] = experiment: apparent KD of MS2 coat protein, switch ON state; designed switch direction (-1 OFF switch, 1 ON switch): 1; higher = weaker reporter binding; settings: FMN input: 0 or 200 uM; Eterna round: R93 (includes R88 designs)
Summary of the method: (§1)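 Designed RNA switches were transcribed on-chip from Illumina sequencing clusters and titrated with SNAP-549-labelled MS2 coat protein in twofold steps from 0.7 or 1.5 nM up to 3 µM. Each step lasted 0.8–1.5 h at first and 10–20 min by the end, in 100 mM Tris-HCl pH 7.5, 80 mM KCl and 4 mM MgCl2, without or with constant ligand. Apparent KD is the median, for each design, of fits to normalised cluster binding curves.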

MS2 coat protein [2] = experiment: apparent KD of MS2 coat protein, switch OFF state (with FMN for OFF switches, without FMN for ON switches); designed switch direction (-1 OFF switch, 1 ON switch): 1; higher = weaker reporter binding; settings: FMN input: 0 or 200 uM; Eterna round: R93 (includes R88 designs)
Summary of the method: as §1

Sequence: AAAUAAAUGACUAAGGAUAUUUCAGAGAAAACAUGAGGAUCACCCAUGUAAUAAUAAAAAGGGUGAAAGAAGGUAGUCAACAAAC [74%, More Paria 4]
- apparent KD of MS2 coat protein (MS2 coat protein [1]): 17.1 nM
- apparent KD of MS2 coat protein (MS2 coat protein [2]): 41 nM

Sequence: AAAAAAAAAAGUCAGGAUAUGCAGGGCGGGACAUGAGGAUCACCCAUGUGGCGGAAAAAAAAAAAGCAGAAGGGACGAAUAAAAAA [William Edwards Deming]
- apparent KD of MS2 coat protein (MS2 coat protein [1]): 23.1 nM
- apparent KD of MS2 coat protein (MS2 coat protein [2]): 42.8 nM

Sequence: AAAAAACAUGAGGAUCACCCAUGUGCAAAAUUCGCAGGAUAUUCCUCAAUUAAAUGAGAGGAAGAAGGGUGACAAA [Nob's Hobby 29 - Jieux - Same State 1]
- apparent KD of MS2 coat protein (MS2 coat protein [1]): 112 nM
- apparent KD of MS2 coat protein (MS2 coat protein [2]): 500 nM

Sequence: AAAAGACAUGAGGAUCACCCAUGUAGGCCAAAGCAAGGAUAUAGGCCACAGGGACGUGAACUAGAAGGUGCACGGC [Zainlebe]
- apparent KD of MS2 coat protein (MS2 coat protein [1]): 30.8 nM
- apparent KD of MS2 coat protein (MS2 coat protein [2]): 135 nM

Sequence: GAAAAACAUGAGGAUCACCCAUGUGUAAAUAUGGAAGGAUAUACGAAGACGUAAGUCAAAGUAGAAGGUCUAAAAG [Garnet 99]
- apparent KD of MS2 coat protein (MS2 coat protein [1]): 19.3 nM
- apparent KD of MS2 coat protein (MS2 coat protein [2]): 24.9 nM

Sequence: AAGGAACAUGAGGAUCACCCAUGUAAAAAAUAUGGAGGAUAUACUAGAAGAAACAAAAUAGUAGAAGGCCAAAAAA [75%, Ex sub1, 30]
- apparent KD of MS2 coat protein (MS2 coat protein [1]): 16.5 nM
- apparent KD of MS2 coat protein (MS2 coat protein [2]): 20.6 nM

Sequence: GAAAAACAUGAGGAUCACCCAUGUAGAAAUAUGGGAGGAUAUACAAGGACGAAAGUCAAGGUAGAAGGCCUAAAAG [Mat - Same State 1 - Eli mod - 26]
- apparent KD of MS2 coat protein (MS2 coat protein [1]): 33.8 nM
- apparent KD of MS2 coat protein (MS2 coat protein [2]): 98.6 nM

Sequence: AAGAAACAUGAGGAUCACCCAUGUAGAAACAUGGGAGGAUAUACGAAGACGAAAGUCAAAGUAGAAGGCCUAAAAA [Garnet 90]
- apparent KD of MS2 coat protein (MS2 coat protein [1]): 78.8 nM
- apparent KD of MS2 coat protein (MS2 coat protein [2]): 198 nM

Sequence: AGAAAUAAAAGAGAGGAUAUCCAAAAUAAAACAUGAGGAUCACCCAUGUCUACGAAAGUAGGAUGGGAGAAGGCUCAAAAUAAAG [80% More Helter Skelter 2 + Hairpin]
- apparent KD of MS2 coat protein (MS2 coat protein [1]): 120 nM
- apparent KD of MS2 coat protein (MS2 coat protein [2]): 14.8 nM

Sequence: AAGAAACAUGAGGAUCACCCAUGUGAAAGAAACACAGGAUAUGCGAAAAGAAACAAAGAAGCAGAAGGGUGAAGAA [Mat - Same State 1 - Tesla mod - 58]
- apparent KD of MS2 coat protein (MS2 coat protein [1]): 22.6 nM
- apparent KD of MS2 coat protein (MS2 coat protein [2]): 39.2 nM

Sequence: UGAAGACAUGAGGAUCACCCAUGUGGGAAUAUGGGAGGAUAUACAAAGACGAGAGUCAGAGUAGAAGGCCUAGGAC [salish99-ss1-98]
- apparent KD of MS2 coat protein (MS2 coat protein [1]): 47.9 nM
- apparent KD of MS2 coat protein (MS2 coat protein [2]): 133 nM

Sequence: AAGAAACAUGAGGAUCACCCAUGUAAAUAAAACACAGGAUAUCGAAUAUGGGAGAUUUAACGAGAAGGGUGAAGAA [Meechl MS2 SS1 3]
- apparent KD of MS2 coat protein (MS2 coat protein [1]): 36 nM
- apparent KD of MS2 coat protein (MS2 coat protein [2]): 87.7 nM

Sequence: GGGAGGAAGAGAGAGGAUAUCCAAAGGAAAACAUGAGGAUCACCCAUGUAAAAGGUAGGAAAUUGGGAGAAGGCUCAAGAGAUGG [salish99-ss2-052]
- apparent KD of MS2 coat protein (MS2 coat protein [1]): 59 nM
- apparent KD of MS2 coat protein (MS2 coat protein [2]): 39.2 nM

Sequence: AAAAAACAUGAGGAUCACCCAUGUGAGAACAUGGGAGGAUAUACGAGGACGAGAGUCAAGGUAGAAGGCCUAAGAA [Garnet 68]
- apparent KD of MS2 coat protein (MS2 coat protein [1]): 268 nM
- apparent KD of MS2 coat protein (MS2 coat protein [2]): 22.8 nM

Sequence: ACUAUACAUGAGGAUCACCCAUGUCAGGUGGGACUAGGAUAUCAUAAGCCAGAGUAAGAAUGAGAAGGAGUAGAAA [JR_SS001_Sub306]
- apparent KD of MS2 coat protein (MS2 coat protein [1]): 143 nM
- apparent KD of MS2 coat protein (MS2 coat protein [2]): 151 nM

Sequence: AAAAGACAUGAGGAUCACCCAUGUCGAAAGACAUGAGGAUAUGUACAGACUUCGGUCUGUACAGAAGGCAUAAAAA [SS1 - 1061]
- apparent KD of MS2 coat protein (MS2 coat protein [1]): 27 nM
- apparent KD of MS2 coat protein (MS2 coat protein [2]): 89.5 nM

Sequence: AGAAAUAAAAGAGAGGAUAUCCAAAAGAAAACAUGAGGAUCACCCAUGUGAAACAAAACAAAAUGGGAGAAGGCUCAAAAUAAGA [Topaz 16]
- apparent KD of MS2 coat protein (MS2 coat protein [1]): 31 nM
- apparent KD of MS2 coat protein (MS2 coat protein [2]): 137 nM

Sequence: AAACCACAUGAGGAUCACCCAUGUGAAAAAAACAUAGGAUAUGGAAACACGAAAGUGAAACCAGAAGGGUGAAAAA [77%, Mat - Mod of Eli, 27]
- apparent KD of MS2 coat protein (MS2 coat protein [1]): 24.3 nM
- apparent KD of MS2 coat protein (MS2 coat protein [2]): 23.8 nM

Sequence: GGGAGACAUGAGGAUCACCCAUGUGAGAAGAGGCGAGGAUAUCGAAAAAAAAAAAAAAAACGAGAAGGCGCGAGAC [salish99-SS1-006]
- apparent KD of MS2 coat protein (MS2 coat protein [1]): 33.6 nM
- apparent KD of MS2 coat protein (MS2 coat protein [2]): 94.5 nM

Sequence: GAAAAACAUGAGGAUCACCCAUGUGGAAAUAUGGGAGGAUAUACGAAGACGAAAGUCAAAGUAGAAGGCCUAAAAG [Same State 1.4c (Mat - Mod of Eli - )]
- apparent KD of MS2 coat protein (MS2 coat protein [1]): 22 nM
- apparent KD of MS2 coat protein (MS2 coat protein [2]): 83.8 nM

Sequence: AAAAGACAUGAGGAUCACCCAUGUAAAGACAUAGGAGGAUAUGUCUGGAAAAAAGACUGGACAGAAGGCCUUUGUC [SS1 - 62]
- apparent KD of MS2 coat protein (MS2 coat protein [1]): 20 nM
- apparent KD of MS2 coat protein (MS2 coat protein [2]): 20.4 nM

Sequence: GACCGGGACGCGUAGGAUAUGUAGUGCGCUACAUGAGGAUCACCCAUGUGCGAGACUUCAAAAGAGCAGAAGGGUGUGUGCCCGG [Xegeedri]
- apparent KD of MS2 coat protein (MS2 coat protein [1]): 40.2 nM
- apparent KD of MS2 coat protein (MS2 coat protein [2]): 65.8 nM

Sequence: AAUGAACAUGAGGAUCACCCAUGUUCUAAUAGUUGAGGAUAUAUGGGUGAAAAUAGCACGGUAGAAGGCGAGUGUA [SameState1 Malc#18]
- apparent KD of MS2 coat protein (MS2 coat protein [1]): 249 nM
- apparent KD of MS2 coat protein (MS2 coat protein [2]): 104 nM

Sequence: AAAUAAAGGACUGAGGAUAUACCACAUGAAACAUGAGGAUCACCCAUGUAGAAAUACAAAGGGUGGUAGAAGGUAGUCCACAAAC [Same State 2.5 so lets mod hyphema)]
- apparent KD of MS2 coat protein (MS2 coat protein [1]): 45.9 nM
- apparent KD of MS2 coat protein (MS2 coat protein [2]): 68.9 nM

Sequence: AUAAAUAAAGUUAAGGAUAUUAUAAAGAAAACAUGAGGAUCACCCAUGUAAAAGAAAAUAGUGGGUAAGAAGGUAACAAAUAAAU [SS2 M 18]
- apparent KD of MS2 coat protein (MS2 coat protein [1]): 23.1 nM
- apparent KD of MS2 coat protein (MS2 coat protein [2]): 42.7 nM

Sequence: AUAAAACAUGAGGAUCACCCAUGUAGAAAUAUGGGAGGAUAUACAAGGACGAAAGUCAAGGUAGAAGGCCUAAAAG [Mat - Same State 1 - Meechl mod - D119]
- apparent KD of MS2 coat protein (MS2 coat protein [1]): 25 nM
- apparent KD of MS2 coat protein (MS2 coat protein [2]): 126 nM

Sequence: AAAACCUGCGUCGAGGAUAUGUAGCCCACUACAUGAGGAUCACCCAUGUGGAUCUUACUGGGUCGACAGAAGGUGAAAGUAAGGC [Ustionon]
- apparent KD of MS2 coat protein (MS2 coat protein [1]): 49.3 nM
- apparent KD of MS2 coat protein (MS2 coat protein [2]): 39.4 nM

Sequence: AAAAAACAUGAGGAUCACCCAUGUCUUUUGACAUGAGGAUAUGUACAGACUUCGGUCUGUACAGAAGGCAUAAAAA [SS1 - 1030]
- apparent KD of MS2 coat protein (MS2 coat protein [1]): 109 nM
- apparent KD of MS2 coat protein (MS2 coat protein [2]): 480 nM

Sequence: AAAUAAAGGACUGAGGAUAUACCACAUGAAACAUGAGGAUCACCCAUGUAGAAAUACAAAGGGUGGUAGAAGGCAGUCCACAAAC [Same State 2.5g ( so lets mod hyphema)]
- apparent KD of MS2 coat protein (MS2 coat protein [1]): 15 nM
- apparent KD of MS2 coat protein (MS2 coat protein [2]): 25.5 nM

Sequence: AUAACACAUGAGGAUCACCCAUGUAGAUACCCGUCAGGAUAUGCAAAGAAAAUAAACAAAGCAGAAGGGACAAUAA [SS 1 Tesla 2]
- apparent KD of MS2 coat protein (MS2 coat protein [1]): 21.2 nM
- apparent KD of MS2 coat protein (MS2 coat protein [2]): 30.4 nM

Sequence: GAAGACAUAGUUCAGGAUAUAGGAAUAGUCACAUGAGGAUCACCCAUGUGCAUUUAUAUGCGCACUUAGAAGGGAGGUAGUUAAU [Mat - Same state - Malcolm Mod - D120]
- apparent KD of MS2 coat protein (MS2 coat protein [1]): 28.4 nM
- apparent KD of MS2 coat protein (MS2 coat protein [2]): 26.8 nM

Sequence: GAGAAACAUGAGGAUCACCCAUGUAGAAAUAUGGGAGGAUAUACAAAGACGAAAGUCAAAGUAGAAGGCCUAAAAG [77%, Mat - Mod of Eli - With 1 more G's]
- apparent KD of MS2 coat protein (MS2 coat protein [1]): 26 nM
- apparent KD of MS2 coat protein (MS2 coat protein [2]): 55.9 nM

Sequence: AAAAGACAUGAGGAUCACCCAUGUGAAAACGUAGGAGGAUAUGUAUGGAAACCAGACUGUACAGAAGGCCUUUGUC [SS1 - 75]
- apparent KD of MS2 coat protein (MS2 coat protein [1]): 23 nM
- apparent KD of MS2 coat protein (MS2 coat protein [2]): 23.3 nM

Sequence: CGCCAAUUGGCACAGGAUAUGAGCAUGCUCACAUGAGGAUCACCCAUGUGAUUAACAACGCAAUAUCAGAAGGGUGCCCUCAUCA [Leonon]
- apparent KD of MS2 coat protein (MS2 coat protein [1]): 50.3 nM
- apparent KD of MS2 coat protein (MS2 coat protein [2]): 33.1 nM

Sequence: CGAAAGGAGAGAGAGGAUAUCCAAAGGAAAACAUGAGGAUCACCCAUGUAGAAGGUAGGAGAUUGGGAGAAGGCUCAAGCAAAAC [salish99-ss2-157]
- apparent KD of MS2 coat protein (MS2 coat protein [1]): 15.9 nM
- apparent KD of MS2 coat protein (MS2 coat protein [2]): 18.6 nM

Sequence: CCGAGGAAGAGAGAGGAUAUCCAAAGGAAAACAUGAGGAUCACCCAUGUAAAAGGUAGGAAAUUGGGAGAAGGCUCAAGAGAGAG [salish99-ss2-072]
- apparent KD of MS2 coat protein (MS2 coat protein [1]): 38.7 nM
- apparent KD of MS2 coat protein (MS2 coat protein [2]): 47.1 nM

Sequence: AGAAAUAAAAGGCAGGAUAUCCAAAAGAAAACAUGAGGAUCACCCAUGUAAAAGAAAAUAAAAUGGGAGAAGGGCCAAAAUAAAG [Fisker 73]
- apparent KD of MS2 coat protein (MS2 coat protein [1]): 13.1 nM
- apparent KD of MS2 coat protein (MS2 coat protein [2]): 42.3 nM

Sequence: AAAAGACAUGAGGAUCACCCAUGUAGGCCAAAGCAAGGAUAUAGGCCACAGGGACGCGGACUAGAAGGUGCACGGC [Orerorge]
- apparent KD of MS2 coat protein (MS2 coat protein [1]): 25.2 nM
- apparent KD of MS2 coat protein (MS2 coat protein [2]): 60.2 nM
